US12072338B2, “Pharmaceutical peptides for the treatment of inflammatory diseases” (PROTAGONISTS LTD., priority 2007, dated 2024)

Key:
[1] = tested on: IL-8; assay: Micro-array analysis of chemokine binding peptides: IL-8; conditions: limit = start of the upper 75% of that peptide's response range
In short: (§1)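 Chemokines printed at 25 and 50 μg/ml on protein microarray slides, blocked, then probed 1 h at RT with peptide-displaying recombinant phage (10^7 pfu/μl). Bound phage detected with mouse anti-M13 then Cy3 anti-mouse IgG. Cy3 fluorescence scanned, reported as relative fluorescence versus chemokine concentration.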

[2] = target: T1, Mig (Homo sapiens, UniProt Q07325); assay: Micro-array analysis of chemokine binding peptides: Mig; conditions: limit = start of the upper 75% of that peptide's response range
T1 construct: purchased 300-26
T1 sequence (Q07325 23-125): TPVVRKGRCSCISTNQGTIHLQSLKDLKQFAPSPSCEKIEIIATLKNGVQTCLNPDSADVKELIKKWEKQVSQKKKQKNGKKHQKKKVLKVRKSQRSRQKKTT
In short: as §1

[3] = target: T2, IP-10 (Homo sapiens, UniProt P02778); assay: Micro-array analysis of chemokine binding peptides: IP-10; conditions: limit = start of the upper 75% of that peptide's response range
T2 construct: purchased 300-12
T2 sequence (P02778 22-98): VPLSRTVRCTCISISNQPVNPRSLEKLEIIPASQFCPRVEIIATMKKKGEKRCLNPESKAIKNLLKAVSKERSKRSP
In short: as §1

[4] = target: T3, I-TAC (Homo sapiens, UniProt O14625); assay: Micro-array analysis of chemokine binding peptides: I-TAC; conditions: limit = start of the upper 75% of that peptide's response range
T3 construct: purchased 300-46
T3 sequence (O14625 22-94): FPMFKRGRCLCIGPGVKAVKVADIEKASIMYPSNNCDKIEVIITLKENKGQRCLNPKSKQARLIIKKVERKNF
In short: as §1

[5] = target: T4, I-309 (Homo sapiens, UniProt P22362); assay: Micro-array analysis of chemokine binding peptides: I-309; conditions: limit = start of the upper 75% of that peptide's response range
T4 construct: purchased 300-37
T4 sequence (P22362 24-96): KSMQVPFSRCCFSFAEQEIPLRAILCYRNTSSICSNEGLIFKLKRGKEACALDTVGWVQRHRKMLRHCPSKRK
In short: as §1

[6] = target: T5, MCP-2 (Homo sapiens, UniProt P80075); assay: Micro-array analysis of chemokine binding peptides: MCP-2; conditions: limit = start of the upper 75% of that peptide's response range
T5 construct: purchased 300-15
T5 sequence (P80075 24-99): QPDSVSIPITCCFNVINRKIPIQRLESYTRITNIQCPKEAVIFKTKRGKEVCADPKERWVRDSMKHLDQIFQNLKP
In short: as §1

[7] = target: T6, MCP-4 (Homo sapiens, UniProt Q99616); assay: Micro-array analysis of chemokine binding peptides: MCP-4; conditions: limit = start of the upper 75% of that peptide's response range
T6 construct: purchased 300-24
T6 sequence (Q99616 17-98): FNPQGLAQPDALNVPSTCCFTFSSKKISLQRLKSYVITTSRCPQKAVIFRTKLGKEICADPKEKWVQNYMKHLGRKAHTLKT
In short: as §1

[8] = target: T7, Eotaxin (Homo sapiens, UniProt P51671); assay: Micro-array analysis of chemokine binding peptides: Eotaxin; conditions: limit = start of the upper 75% of that peptide's response range
T7 construct: purchased 300-21
In short: as §1

[9] = target: T8, Eotaxin 3 (Homo sapiens, UniProt Q9Y258); assay: Micro-array analysis of chemokine binding peptides: Eotaxin 3; conditions: limit = start of the upper 75% of that peptide's response range
T8 construct: purchased 300-48
T8 sequence (Q9Y258 24-94): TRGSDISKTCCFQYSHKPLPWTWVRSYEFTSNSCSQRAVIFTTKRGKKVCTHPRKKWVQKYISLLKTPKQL
In short: as §1

[10] = target: T9, BCA-1 (Homo sapiens, UniProt O43927); assay: Micro-array analysis of chemokine binding peptides: BCA-1
T9 construct: purchased 300-47
T9 sequence (O43927 23-109): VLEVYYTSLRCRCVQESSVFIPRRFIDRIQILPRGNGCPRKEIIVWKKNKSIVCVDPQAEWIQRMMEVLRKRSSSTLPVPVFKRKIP
In short: as §1

[11] = target: T10, TECK (Homo sapiens, UniProt O15444); assay: Micro-array analysis of chemokine binding peptides: TECK
T10 construct: purchased 300-45
T10 sequence (O15444 24-150): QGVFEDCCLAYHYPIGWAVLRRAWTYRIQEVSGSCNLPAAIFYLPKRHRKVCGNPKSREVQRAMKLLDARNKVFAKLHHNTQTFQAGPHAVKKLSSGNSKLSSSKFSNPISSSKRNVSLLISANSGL
In short: as §1

[12] = target: T11, Fractalkine (Homo sapiens, UniProt P78423); assay: Micro-array analysis of chemokine binding peptides: Fractalkine
T11 construct: purchased 300-31
T11 sequence (P78423 25-100 limits assumed): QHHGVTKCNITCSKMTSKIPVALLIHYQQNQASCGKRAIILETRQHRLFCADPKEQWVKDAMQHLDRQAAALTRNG
In short: as §1

[13] = target: T12, Lymphotactin (Homo sapiens, UniProt P47992); assay: Micro-array analysis of chemokine binding peptides: Lymphotactin
T12 construct: purchased 300-20
T12 sequence (P47992 22-114): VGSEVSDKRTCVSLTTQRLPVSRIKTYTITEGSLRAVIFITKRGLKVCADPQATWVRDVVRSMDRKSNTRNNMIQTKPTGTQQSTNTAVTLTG
In short: as §1

[14] = tested on: SDF1; assay: Micro-array analysis of chemokine binding peptides: SDF1 (isoform not given)
Sequence of SDF1 (P48061 22-89 limits assumed): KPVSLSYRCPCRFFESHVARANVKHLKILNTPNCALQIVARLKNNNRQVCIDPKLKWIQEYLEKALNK
Procedure: (§2) (1) Printing: Chemokine (CK) solution (in water) was serially diluted with Print Reagent (GenTel BioSurfaces USA) to final concentrations of 50 μg and 25 μg/ml. BSA/BSA-Biotin control solutions (in water) were diluted with Print Reagent to 100 μg/ml. Amplified stock of M13 phage control (M13KEgIII Cloning Vector, New England Biolabs, Cat.No.E8101S) was stored in Tris Buffered Saline (TBS; pH7.5, 4° C.) and diluted with Print Reagent to the working titre (10^8 pfu/μl). An automated spotting robot (16 pin print tool, 0.4 mm head; BioRobotics, UK) was used to print the CK/BSA control/M13 control, 5 repeats per sample (CK 25 μg/ml and 50 μg/ml; BSA 100 μg/ml; M13 20 μl), on PATH Protein Microarray Slides (GenTel, Prod.No. 2-1005/-1025) at […], and 50-70% relative humidity. Printed micro-array slides were stored at Room Temperature (RT) or 4° C. for at least 24 h before use.
(§3) (2) Blocking: Block Buffer (500 μl/partition; PATHblock, GenTel, Prod.No. 2-1014) was applied to the slide for 1 hour at room temp (RT). After removal of Block Buffer, the slide was air dried for 25 minutes;
(§4) (3) Phage Presented Peptide Binding: Amplified recombinant phage stock was stored in TBS and diluted with Wash Buffer to working titer (10^7 pfu/μl). Recombinant phage suspension (300 μl) was applied per partition and incubated at RT for 1 hour with gentle agitation.
(§5) (4) First Washing: The slides were washed twice with Wash Buffer 300 μl/partition).
(§6) (5) Primary Antibody (Ab) Labeling: The slides were incubated with the Primary Ab (1 mg/ml diluted ×2500 (Wash Reagent), 300 μl; Mouse Anti-M13 monoclonal Ab; Amersham Biosciences, UK; Product Code 27-9420-01) for 45 minutes at RT.
(§7) (6) Second Washing: The slides were washed twice with Wash Buffer (300 μl/partition).
(§8) (7) Secondary Ab Labeling: The slides were incubated with Secondary Ab (1.5 mg/ml diluted ×5000 (Wash Reagent), 300 μl; Cy3-conjugated AffiniPure Goat Anti-Mouse IgG; Jackson ImmunoReserch Labs, USA; Product Code 115-165-062).
(§9) (8) Third Washing: The slides were washed twice with Wash Buffer (300 μl/partition).
(§10) (9) Rinse: the slides were rinsed twice with Rinse Buffer (PATHrinse, GenTel, Prod.No. 2-1018) then dried well.
(§11) (10) Scanning: The peptide-bound, labeled slide was scanned (Laser Intensity 80%, Gain 80%, Resolution 10 μm) with a ScanArray Life Scanner (Packard BioChip Technologies, USA).
(§12) (11) Analysis: Quantitative analysis of micro-array was performed by the SpotReader program of Niles Scientific (USA) and presented as Relative Fluorescence (RF) as a function of CK concentration. Micro-array readout (Cy3 fluorescence) was quantified to determine the relative binding affinities of a CBP for the CKs and by inference, the specificity of the CBP for binding to a CK.

[15] = target: T13, SDF1-α (Homo sapiens, UniProt P48061); assay: Micro-array analysis of chemokine binding peptides: SDF1-α
T13 construct: purchased 300-28a
T13 sequence (P48061 22-89 limits assumed): as above
Procedure: as §2, §3, §4, §5, §6, §7, §8, §9, §10, §11, §12

[16] = target: T14, SDF1-β (Homo sapiens, UniProt P48061); assay: Micro-array analysis of chemokine binding peptides: SDF1-β
T14 construct: purchased 300-28b
T14 sequence (P48061 22-93): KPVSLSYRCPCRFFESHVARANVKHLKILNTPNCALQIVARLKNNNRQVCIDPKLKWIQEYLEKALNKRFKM
In short: as §1

[17] = target: T15, Exodus-2 (Homo sapiens, UniProt O00585); assay: Micro-array analysis of chemokine binding peptides: Exodus-2
T15 construct: purchased 300-35
T15 sequence (O00585 24-134): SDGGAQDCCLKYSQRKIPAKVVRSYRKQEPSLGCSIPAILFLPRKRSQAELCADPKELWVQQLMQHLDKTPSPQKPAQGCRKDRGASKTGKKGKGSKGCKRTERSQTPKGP
In short: as §1

[18] = target: T16, C-TAC (Homo sapiens, UniProt Q9Y4X3); assay: Micro-array analysis of chemokine binding peptides: C-TAC
T16 construct: purchased 300-54
T16 sequence (Q9Y4X3 25-112): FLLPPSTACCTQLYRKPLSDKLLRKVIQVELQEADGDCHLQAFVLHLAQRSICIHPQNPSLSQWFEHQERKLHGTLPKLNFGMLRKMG
Procedure: as §2, §3, §4, §5
(5) Primary Antibody (Ab) Labeling: The slides were incubated with the Primary Ab (1 mg/ml diluted ×2500 (Wash Reagent), 300 μl; Mouse Anti-M13 monoclonal Ab; Amersham Biosciences, UK; Product Code 27-9420-01) for 45 minutes at RT. […]
as §12

Sequence of IL-8 (P10145 28-99 limits assumed): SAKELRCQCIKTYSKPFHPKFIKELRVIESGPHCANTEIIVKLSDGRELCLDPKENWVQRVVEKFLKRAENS

binding to IL-8 with relatively high affinity (Relative Fluorescence Units) [1] | binding to Mig with relatively high affinity (Relative Fluorescence Units) [2] | binding to IP-10 with relatively high affinity (Relative Fluorescence Units) [3] | binding to I-TAC with relatively high affinity (Relative Fluorescence Units) [4] | binding to I-309 with relatively high affinity (Relative Fluorescence Units) [5] | binding to MCP-2 with relatively high affinity (Relative Fluorescence Units) [6] | binding to MCP-4 with relatively high affinity (Relative Fluorescence Units) [7] | binding to Eotaxin with relatively high affinity (Relative Fluorescence Units) [8] | binding to Eotaxin 3 with relatively high affinity (Relative Fluorescence Units) [9] | binding to BCA-1, stated in words [10] | binding to TECK, stated in words [11] | binding to Fractalkine, stated in words [12] | binding to Lymphotactin, stated in words [13] | binding to SDF1 (isoform not given), stated in words [14] | binding to SDF1-α, stated in words [15] | binding to SDF1-β, stated in words [16] | binding to Exodus-2, stated in words [17] | binding to C-TAC, stated in words [18] | Substance
> 15,000 RFU | > 15,000 RFU | > 15,000 RFU | > 15,000 RFU | > 15,000 RFU | > 15,000 RFU | > 15,000 RFU | > 15,000 RFU | > 15,000 RFU | bound | bound | bound | bound | bound | – | – | – | – | WVFG (listed as Homo sapiens) [Ph-p8.4]
– | – | > 10,000 RFU | > 10,000 RFU | – | – | – | – | > 10,000 RFU | bound | bound | – | – | – | bound | bound | bound | bound | NAMCK (listed as Homo sapiens) [Ph-p8.11]
